# B1: EHEE_rd2_0191 (parent)
# chain: TTEYTFTDDEEARRAIEELKKRGLTFRYEKHGTTWRVRVD
# B2: EHEE_rd4_0726 (parent)
# chain: DIEITTNGEEDAKRVIKELQKRNLEYHIEVHGNQWVIKVR
# Variants of: B1
# Experiment: folding stability dG (cDNA display proteolysis); higher = more stable
# Details: PBS, room temperature
row,Variant,folding stability dG [kcal/mol]
1,TTEYTFTDDEEARRAIEELKKRGLTFRYEKHGTTWRVRVE [D40E],2.31
2,TTEYTFTDDEEARRAIEELKKRGLTFRYEKHGTTWRVRVC [D40C],3.04
3,TTEYTFTDDEEARRAIEELKKRGLTFRYEKHGTTWRVRVN [D40N],2.04
4,TTEYTFTDDEEARRAIEELKKRGLTFRYEKHGTTWRVRVI [D40I],2.83
5,TTEYTFTDDEEARRAIEELKKRGLTFRYEKHGTTWRVRVG [D40G],2.1
6,TTEYTFTDDEEARRAIEELKKRGLTFRYEKHGTTWRVRVL [D40L],2.78
7,TTEYTFTDDEEARRAIEELKKRGLTFRYEKHGTTWRVRVA [D40A],2.04
8,TTEYTFTDDEEARRAIEELKKRGLTFRYEKHGTTWRVRVV [D40V],2.54
9,TTEYTFTDDEEARRAIEELKKRGLTFRYEKHGTTWRVRVY [D40Y],3.29
10,TTEYTFTDDEEARRAIEELKKRGLTFRYEKHGTTWRVRVR [D40R],1.95
11,TTEYTFTDDEEARRAIEELKKRGLTFRYEKHGTTWRVRVF [D40F],3.35
12,TTEYTFTDDEEARRAIEELKKRGLTFRYEKHGTTWRVRVW [D40W],3.19
13,TTEYTFTDDEEARRAIEELKKRGLTFRYEKHGTTWRVRVP [D40P],1.86
14,TTEYTFTDDEEARRAIEELKKRGLTFRYEKHGTTWRVRVT [D40T],2.38
15,TTEYTFTDDEEARRAIEELKKRGLTFRYEKHGTTWRVRVQ [D40Q],2.19
16,TTEYTFTDDEEARRAIEELKKRGLTFRYEKHGTTWRVRVK [D40K],1.9
17,TTEYTFTDDEEARRAIEELKKRGLTFRYEKHGTTWRVRVM [D40M],2.68
18,TTEYTFTDDEEARRAIEELKKRGLTFRYEKHGTTWRVRVH [D40H],2.19
19,TTEYTFTDDEEARRAIEELKKRGLTFRYEKHGTTWRVRVS [D40S],2.17
20,TTEYTFTDDEEARRAIEELKKRGLTFRYEKHGTTWRVRQD [V39Q],-0.645
21,TTEYTFTDDEEARRAIEELKKRGLTFRYEKHGTTWRVRPD [V39P],-0.946
22,TTEYTFTDDEEARRAIEELKKRGLTFRYEKHGTTWRVRYD [V39Y],0.601
23,TTEYTFTDDEEARRAIEELKKRGLTFRYEKHGTTWRVRAD [V39A],0.227
24,TTEYTFTDDEEARRAIEELKKRGLTFRYEKHGTTWRVRHD [V39H],-0.386
25,TTEYTFTDDEEARRAIEELKKRGLTFRYEKHGTTWRVRWD [V39W],0.937
26,TTEYTFTDDEEARRAIEELKKRGLTFRYEKHGTTWRVRMD [V39M],1.02
27,TTEYTFTDDEEARRAIEELKKRGLTFRYEKHGTTWRVRSD [V39S],-0.316

row,Variant,folding stability dG [kcal/mol]
1,TTEYTFTDDEEARRAIEELKKRGLTFRYEKHGTTWRVRFD [V39F],1.24
2,TTEYTFTDDEEARRAIEELKKRGLTFRYEKHGTTWRVRED [V39E],-0.709
3,TTEYTFTDDEEARRAIEELKKRGLTFRYEKHGTTWRVRTD [V39T],0.562
4,TTEYTFTDDEEARRAIEELKKRGLTFRYEKHGTTWRVRLD [V39L],1.6
5,TTEYTFTDDEEARRAIEELKKRGLTFRYEKHGTTWRVRID [V39I],2.02
6,TTEYTFTDDEEARRAIEELKKRGLTFRYEKHGTTWRIRVD [V37I],2.67
7,TTEYTFTDDEEARRAIEELKKRGLTFRYEKHGTTWRMRVD [V37M],0.361
8,TTEYTFTDDEEARRAIEELKKRGLTFRYEKHGTTWRFRVD [V37F],1.88
9,TTEYTFTDDEEARRAIEELKKRGLTFRYEKHGTTWRLRVD [V37L],1.76
10,TTEYTFTDDEEARRAIEELKKRGLTFRYEKHGTTWRPRVD [V37P],-0.51
11,TTEYTFTDDEEARRAIEELKKRGLTFRYEKHGTTWRVHVD [R38H],2.28
12,TTEYTFTDDEEARRAIEELKKRGLTFRYEKHGTTWRVKVD [R38K],2.06
13,TTEYTFTDDEEARRAIEELKKRGLTFRYEKHGTTWRVGVD [R38G],0.594
14,TTEYTFTDDEEARRAIEELKKRGLTFRYEKHGTTWRVVVD [R38V],3.23
15,TTEYTFTDDEEARRAIEELKKRGLTFRYEKHGTTWRVDVD [R38D],1.11
16,TTEYTFTDDEEARRAIEELKKRGLTFRYEKHGTTWRVYVD [R38Y],3.62
17,TTEYTFTDDEEARRAIEELKKRGLTFRYEKHGTTWRVTVD [R38T],2.95
18,TTEYTFTDDEEARRAIEELKKRGLTFRYEKHGTTWRVAVD [R38A],1.89
19,TTEYTFTDDEEARRAIEELKKRGLTFRYEKHGTTWRVMVD [R38M],2.81
20,TTEYTFTDDEEARRAIEELKKRGLTFRYEKHGTTWRVQVD [R38Q],2.47
21,TTEYTFTDDEEARRAIEELKKRGLTFRYEKHGTTWRVLVD [R38L],2.95
22,TTEYTFTDDEEARRAIEELKKRGLTFRYEKHGTTWRVWVD [R38W],4.04
23,TTEYTFTDDEEARRAIEELKKRGLTFRYEKHGTTWRVFVD [R38F],3.61
24,TTEYTFTDDEEARRAIEELKKRGLTFRYEKHGTTWRVSVD [R38S],2.49
25,TTEYTFTDDEEARRAIEELKKRGLTFRYEKHGTTWRVNVD [R38N],1.71
26,TTEYTFTDDEEARRAIEELKKRGLTFRYEKHGTTWRVIVD [R38I],3.6
27,TTEYTFTDDEEARRAIEELKKRGLTFRYEKHGTTWRVEVD [R38E],2.35

# Variants of: B2
# Experiment: as above
# Details: PBS, room temperature
row,Variant,folding stability dG [kcal/mol]
1,SIEITTNGEEDAKRVIKELQKRNLEYHIEVHGNQWVIKVR [D1S],2.39
2,RIEITTNGEEDAKRVIKELQKRNLEYHIEVHGNQWVIKVR [D1R],2.24
3,PIEITTNGEEDAKRVIKELQKRNLEYHIEVHGNQWVIKVR [D1P],2.29
4,VIEITTNGEEDAKRVIKELQKRNLEYHIEVHGNQWVIKVR [D1V],2.77
5,WIEITTNGEEDAKRVIKELQKRNLEYHIEVHGNQWVIKVR [D1W],4.08
6,TIEITTNGEEDAKRVIKELQKRNLEYHIEVHGNQWVIKVR [D1T],2.63
7,HIEITTNGEEDAKRVIKELQKRNLEYHIEVHGNQWVIKVR [D1H],2.48
8,CIEITTNGEEDAKRVIKELQKRNLEYHIEVHGNQWVIKVR [D1C],2.75
9,KIEITTNGEEDAKRVIKELQKRNLEYHIEVHGNQWVIKVR [D1K],1.97
10,IIEITTNGEEDAKRVIKELQKRNLEYHIEVHGNQWVIKVR [D1I],2.87
11,QIEITTNGEEDAKRVIKELQKRNLEYHIEVHGNQWVIKVR [D1Q],2.36
12,GIEITTNGEEDAKRVIKELQKRNLEYHIEVHGNQWVIKVR [D1G],2.43
13,AIEITTNGEEDAKRVIKELQKRNLEYHIEVHGNQWVIKVR [D1A],2.34
14,MIEITTNGEEDAKRVIKELQKRNLEYHIEVHGNQWVIKVR [D1M],2.87
15,YIEITTNGEEDAKRVIKELQKRNLEYHIEVHGNQWVIKVR [D1Y],3.38
16,NIEITTNGEEDAKRVIKELQKRNLEYHIEVHGNQWVIKVR [D1N],2.37
17,EIEITTNGEEDAKRVIKELQKRNLEYHIEVHGNQWVIKVR [D1E],2.59
18,LIEITTNGEEDAKRVIKELQKRNLEYHIEVHGNQWVIKVR [D1L],2.76
19,FIEITTNGEEDAKRVIKELQKRNLEYHIEVHGNQWVIKVR [D1F],3.31
20,DIEGTTNGEEDAKRVIKELQKRNLEYHIEVHGNQWVIKVR [I4G],-0.292
21,DIENTTNGEEDAKRVIKELQKRNLEYHIEVHGNQWVIKVR [I4N],-0.395
22,DIELTTNGEEDAKRVIKELQKRNLEYHIEVHGNQWVIKVR [I4L],1.66
23,DIEATTNGEEDAKRVIKELQKRNLEYHIEVHGNQWVIKVR [I4A],0.165
24,DIERTTNGEEDAKRVIKELQKRNLEYHIEVHGNQWVIKVR [I4R],0.4

row,Variant,folding stability dG [kcal/mol]
1,DIEQTTNGEEDAKRVIKELQKRNLEYHIEVHGNQWVIKVR [I4Q],0.094
2,DIEPTTNGEEDAKRVIKELQKRNLEYHIEVHGNQWVIKVR [I4P],0.107
3,DIEMTTNGEEDAKRVIKELQKRNLEYHIEVHGNQWVIKVR [I4M],1.23
4,DIEHTTNGEEDAKRVIKELQKRNLEYHIEVHGNQWVIKVR [I4H],0.697
5,DIESTTNGEEDAKRVIKELQKRNLEYHIEVHGNQWVIKVR [I4S],0.002
6,DIEETTNGEEDAKRVIKELQKRNLEYHIEVHGNQWVIKVR [I4E],0.017
7,DIEFTTNGEEDAKRVIKELQKRNLEYHIEVHGNQWVIKVR [I4F],2.12
8,DIETTTNGEEDAKRVIKELQKRNLEYHIEVHGNQWVIKVR [I4T],0.528
9,DIEKTTNGEEDAKRVIKELQKRNLEYHIEVHGNQWVIKVR [I4K],0.22
10,DIEDTTNGEEDAKRVIKELQKRNLEYHIEVHGNQWVIKVR [I4D],-0.582
11,DIMITTNGEEDAKRVIKELQKRNLEYHIEVHGNQWVIKVR [E3M],2.74
12,DIPITTNGEEDAKRVIKELQKRNLEYHIEVHGNQWVIKVR [E3P],0.973
13,DITITTNGEEDAKRVIKELQKRNLEYHIEVHGNQWVIKVR [E3T],3.12
14,DILITTNGEEDAKRVIKELQKRNLEYHIEVHGNQWVIKVR [E3L],2.76
15,DIDITTNGEEDAKRVIKELQKRNLEYHIEVHGNQWVIKVR [E3D],1.78
16,DIIITTNGEEDAKRVIKELQKRNLEYHIEVHGNQWVIKVR [E3I],3.45
17,DIGITTNGEEDAKRVIKELQKRNLEYHIEVHGNQWVIKVR [E3G],1.25
18,DISITTNGEEDAKRVIKELQKRNLEYHIEVHGNQWVIKVR [E3S],2.5
19,DIRITTNGEEDAKRVIKELQKRNLEYHIEVHGNQWVIKVR [E3R],2.34
20,DIAITTNGEEDAKRVIKELQKRNLEYHIEVHGNQWVIKVR [E3A],2.16
21,DIWITTNGEEDAKRVIKELQKRNLEYHIEVHGNQWVIKVR [E3W],3.35
22,DIVITTNGEEDAKRVIKELQKRNLEYHIEVHGNQWVIKVR [E3V],3.33
23,DIQITTNGEEDAKRVIKELQKRNLEYHIEVHGNQWVIKVR [E3Q],2.37
24,DIYITTNGEEDAKRVIKELQKRNLEYHIEVHGNQWVIKVR [E3Y],3.11

row,Variant,folding stability dG [kcal/mol]
1,DIKITTNGEEDAKRVIKELQKRNLEYHIEVHGNQWVIKVR [E3K],2.18
2,DIFITTNGEEDAKRVIKELQKRNLEYHIEVHGNQWVIKVR [E3F],2.93
3,DIHITTNGEEDAKRVIKELQKRNLEYHIEVHGNQWVIKVR [E3H],2.31
4,DINITTNGEEDAKRVIKELQKRNLEYHIEVHGNQWVIKVR [E3N],1.87
5,DKEITTNGEEDAKRVIKELQKRNLEYHIEVHGNQWVIKVR [I2K],1.58
6,DDEITTNGEEDAKRVIKELQKRNLEYHIEVHGNQWVIKVR [I2D],1.41
7,DPEITTNGEEDAKRVIKELQKRNLEYHIEVHGNQWVIKVR [I2P],1.06
8,DFEITTNGEEDAKRVIKELQKRNLEYHIEVHGNQWVIKVR [I2F],3.22
9,DSEITTNGEEDAKRVIKELQKRNLEYHIEVHGNQWVIKVR [I2S],1.65
10,DGEITTNGEEDAKRVIKELQKRNLEYHIEVHGNQWVIKVR [I2G],1.4
11,DQEITTNGEEDAKRVIKELQKRNLEYHIEVHGNQWVIKVR [I2Q],1.69
12,DWEITTNGEEDAKRVIKELQKRNLEYHIEVHGNQWVIKVR [I2W],3.69
13,DREITTNGEEDAKRVIKELQKRNLEYHIEVHGNQWVIKVR [I2R],1.97
14,DVEITTNGEEDAKRVIKELQKRNLEYHIEVHGNQWVIKVR [I2V],2.15
15,DCEITTNGEEDAKRVIKELQKRNLEYHIEVHGNQWVIKVR [I2C],2.82
16,DAEITTNGEEDAKRVIKELQKRNLEYHIEVHGNQWVIKVR [I2A],1.53
17,DLEITTNGEEDAKRVIKELQKRNLEYHIEVHGNQWVIKVR [I2L],2.52
18,DHEITTNGEEDAKRVIKELQKRNLEYHIEVHGNQWVIKVR [I2H],2.06
19,DTEITTNGEEDAKRVIKELQKRNLEYHIEVHGNQWVIKVR [I2T],1.91
20,DYEITTNGEEDAKRVIKELQKRNLEYHIEVHGNQWVIKVR [I2Y],3.27
21,DEEITTNGEEDAKRVIKELQKRNLEYHIEVHGNQWVIKVR [I2E],1.54
22,DNEITTNGEEDAKRVIKELQKRNLEYHIEVHGNQWVIKVR [I2N],1.49
23,DMEITTNGEEDAKRVIKELQKRNLEYHIEVHGNQWVIKVR [I2M],2.43
